Measured values reported in patent US20150337051A1 (MORPHOTEK, published 2015).

Legend:
[1] = target: T1, recombinant CHO TEM-1 Fc fusion protein (UniProt Q9HCU0); test: ECL sandwich, competition: biotin-9G5 capture, sulfo-TAG-15F8 detection; MORAb-004 spike 6.25 µg/mL, TEM-1-Fc QC 0.08 ng/mL; recovery at 0 µg/mL MORAb-004: 114
T1 sequence (looked up): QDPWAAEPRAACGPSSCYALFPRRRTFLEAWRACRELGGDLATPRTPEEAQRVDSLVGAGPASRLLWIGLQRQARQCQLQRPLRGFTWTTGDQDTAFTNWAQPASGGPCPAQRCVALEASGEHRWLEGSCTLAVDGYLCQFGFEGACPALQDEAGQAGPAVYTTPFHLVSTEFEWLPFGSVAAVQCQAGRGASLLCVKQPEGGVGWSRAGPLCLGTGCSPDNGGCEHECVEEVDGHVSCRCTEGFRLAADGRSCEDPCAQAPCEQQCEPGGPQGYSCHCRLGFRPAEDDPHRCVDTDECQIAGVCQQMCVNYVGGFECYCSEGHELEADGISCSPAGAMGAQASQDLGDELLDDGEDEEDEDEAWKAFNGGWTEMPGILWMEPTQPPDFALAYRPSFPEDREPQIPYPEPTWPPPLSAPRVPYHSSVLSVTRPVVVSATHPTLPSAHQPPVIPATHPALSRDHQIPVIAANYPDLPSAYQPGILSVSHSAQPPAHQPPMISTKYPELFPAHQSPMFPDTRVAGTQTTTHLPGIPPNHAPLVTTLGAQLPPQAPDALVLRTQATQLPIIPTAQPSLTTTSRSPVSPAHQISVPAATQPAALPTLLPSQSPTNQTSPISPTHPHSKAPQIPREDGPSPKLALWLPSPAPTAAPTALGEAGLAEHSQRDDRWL

[2] = target: T1, recombinant CHO TEM-1 Fc fusion protein; test: ECL sandwich, competition: biotin-9G5 capture, sulfo-TAG-15F8 detection; MORAb-004 spike 0.78125 µg/mL, TEM-1-Fc QC 50 ng/mL; recovery at 0 µg/mL MORAb-004: 104
[3] = target: T1, recombinant CHO TEM-1 Fc fusion protein; test: ECL sandwich, competition: biotin-9G5 capture, sulfo-TAG-15F8 detection; MORAb-004 spike 25 µg/mL, TEM-1-Fc QC 0.08 ng/mL; recovery at 0 µg/mL MORAb-004: 114
[4] = target: T1, recombinant CHO TEM-1 Fc fusion protein; test: ECL sandwich, competition: biotin-9G5 capture, sulfo-TAG-15F8 detection; MORAb-004 spike 0.78125 µg/mL, TEM-1-Fc QC 10 ng/mL; recovery at 0 µg/mL MORAb-004: 105
[5] = target: T1, recombinant CHO TEM-1 Fc fusion protein; test: ECL sandwich, competition: biotin-9G5 capture, sulfo-TAG-15F8 detection; MORAb-004 spike 25 µg/mL, TEM-1-Fc QC 10 ng/mL; recovery at 0 µg/mL MORAb-004: 105
[6] = target: T1, recombinant CHO TEM-1 Fc fusion protein; test: ECL sandwich, competition: biotin-9G5 capture, sulfo-TAG-15F8 detection; MORAb-004 spike 12.5 µg/mL, TEM-1-Fc QC 0.4 ng/mL; recovery at 0 µg/mL MORAb-004: 109
[7] = target: T1, recombinant CHO TEM-1 Fc fusion protein; test: ECL sandwich, competition: biotin-9G5 capture, sulfo-TAG-15F8 detection; MORAb-004 spike 6.25 µg/mL, TEM-1-Fc QC 10 ng/mL; recovery at 0 µg/mL MORAb-004: 105
[8] = target: T1, recombinant CHO TEM-1 Fc fusion protein; test: ECL sandwich, competition: biotin-9G5 capture, sulfo-TAG-15F8 detection; MORAb-004 spike 1.5625 µg/mL, TEM-1-Fc QC 2 ng/mL; recovery at 0 µg/mL MORAb-004: 106
[9] = target: T1, recombinant CHO TEM-1 Fc fusion protein; test: ECL sandwich, competition: biotin-9G5 capture, sulfo-TAG-15F8 detection; MORAb-004 spike 0.78125 µg/mL, TEM-1-Fc QC 0.08 ng/mL; recovery at 0 µg/mL MORAb-004: 114
[10] = target: T1, recombinant CHO TEM-1 Fc fusion protein; test: ECL sandwich, competition: biotin-9G5 capture, sulfo-TAG-15F8 detection; MORAb-004 spike 6.25 µg/mL, TEM-1-Fc QC 0.4 ng/mL; recovery at 0 µg/mL MORAb-004: 109
[11] = target: T1, recombinant CHO TEM-1 Fc fusion protein; test: ECL sandwich, competition: biotin-9G5 capture, sulfo-TAG-15F8 detection; MORAb-004 spike 12.5 µg/mL, TEM-1-Fc QC 2 ng/mL; recovery at 0 µg/mL MORAb-004: 106
[12] = target: T1, recombinant CHO TEM-1 Fc fusion protein; test: ECL sandwich, competition: biotin-9G5 capture, sulfo-TAG-15F8 detection; MORAb-004 spike 3.125 µg/mL, TEM-1-Fc QC 10 ng/mL; recovery at 0 µg/mL MORAb-004: 105
[13] = target: T1, recombinant CHO TEM-1 Fc fusion protein; test: ECL sandwich, competition: biotin-9G5 capture, sulfo-TAG-15F8 detection; MORAb-004 spike 50 µg/mL, TEM-1-Fc QC 0.08 ng/mL; recovery at 0 µg/mL MORAb-004: 114
[14] = target: T1, recombinant CHO TEM-1 Fc fusion protein; test: ECL sandwich, competition: biotin-9G5 capture, sulfo-TAG-15F8 detection; MORAb-004 spike 50 µg/mL, TEM-1-Fc QC 10 ng/mL; recovery at 0 µg/mL MORAb-004: 105
[15] = target: T1, recombinant CHO TEM-1 Fc fusion protein; test: ECL sandwich, competition: biotin-9G5 capture, sulfo-TAG-15F8 detection; MORAb-004 spike 3.125 µg/mL, TEM-1-Fc QC 0.4 ng/mL; recovery at 0 µg/mL MORAb-004: 109

B1: MORAb-004 (antibody, INN chains, looked up, V domains shown)
VH: QVQLQESGPGLVRPSQTLSLTCTASGYTFTDYVIHWVKQPPGRGLEWIGYINPYDDDTTYNQKFKGRVTMLVDTSSNTAYLRLSSVTAEDTAVYYCARRGNSYDGYFDYSMDYWGSGTPVTVSS
VL: DIQMTQSPSSLSASVGDRVTITCRASQNVGTAVAWLQQTPGKAPKLLIYSASNRYTGVPSRFSGSGSGTDYTFTISSLQPEDIATYYCQQYTNYPMYTFGQGTKVQIK
A % Recovery of TEM-1 QCs spiked with MORAb-004 [1] of 101%, a % Recovery of TEM-1 QCs spiked with MORAb-004 [2] of 99.3% and a % Recovery of TEM-1 QCs spiked with MORAb-004 [3] of 96% were found for B1 in this work. For the same binder, the % Recovery of TEM-1 QCs spiked with MORAb-004 [4] was 100%, the % Recovery of TEM-1 QCs spiked with MORAb-004 [5] was 91.3% and the % Recovery of TEM-1 QCs spiked with MORAb-004 [6] was 96.5%. It also gave a % Recovery of TEM-1 QCs spiked with MORAb-004 [7] of 94.4%, a % Recovery of TEM-1 QCs spiked with MORAb-004 [8] of 98.9% and a % Recovery of TEM-1 QCs spiked with MORAb-004 [9] of 107%. The % Recovery of TEM-1 QCs spiked with MORAb-004 [10] was 98%, the % Recovery of TEM-1 QCs spiked with MORAb-004 [11] was 92.8% and the % Recovery of TEM-1 QCs spiked with MORAb-004 [12] was 95.8%. The % Recovery of TEM-1 QCs spiked with MORAb-004 [13] was 94.1%, the % Recovery of TEM-1 QCs spiked with MORAb-004 [14] was 87% and the % Recovery of TEM-1 QCs spiked with MORAb-004 [15] was 101%.
